Laboratory results published in publication PMC10491584, “Structural convergence endows nuclear transport receptor Kap114p with a transcriptional repressor function toward TATA-binding protein” (Nature Communications, 2023).

Columns and labels:
Kap114pΔ(Y939) = target: T1, Kap114pΔ(Y939) (S. cerevisiae, UniProt P53067 1-1004, ΔY939); assay: ITC; MicroCal iTC200, 25 °C, 20 mM HEPES pH 7.4, 150 mM NaCl; high concentration: 50 µM wild type or mutant Kap114p in the sample cell, 500 µM wild type or mutant yTBPC in the syringe; triplicate; details: both partners purified
T1 construct: Kap114p, S. cerevisiae, full length with residue Y939 deleted; also called GST-Kap114p (Δ939); source: E. coli Rosetta, purified (GST resin, MonoQ, Superdex 200)
T1 sequence (looked up): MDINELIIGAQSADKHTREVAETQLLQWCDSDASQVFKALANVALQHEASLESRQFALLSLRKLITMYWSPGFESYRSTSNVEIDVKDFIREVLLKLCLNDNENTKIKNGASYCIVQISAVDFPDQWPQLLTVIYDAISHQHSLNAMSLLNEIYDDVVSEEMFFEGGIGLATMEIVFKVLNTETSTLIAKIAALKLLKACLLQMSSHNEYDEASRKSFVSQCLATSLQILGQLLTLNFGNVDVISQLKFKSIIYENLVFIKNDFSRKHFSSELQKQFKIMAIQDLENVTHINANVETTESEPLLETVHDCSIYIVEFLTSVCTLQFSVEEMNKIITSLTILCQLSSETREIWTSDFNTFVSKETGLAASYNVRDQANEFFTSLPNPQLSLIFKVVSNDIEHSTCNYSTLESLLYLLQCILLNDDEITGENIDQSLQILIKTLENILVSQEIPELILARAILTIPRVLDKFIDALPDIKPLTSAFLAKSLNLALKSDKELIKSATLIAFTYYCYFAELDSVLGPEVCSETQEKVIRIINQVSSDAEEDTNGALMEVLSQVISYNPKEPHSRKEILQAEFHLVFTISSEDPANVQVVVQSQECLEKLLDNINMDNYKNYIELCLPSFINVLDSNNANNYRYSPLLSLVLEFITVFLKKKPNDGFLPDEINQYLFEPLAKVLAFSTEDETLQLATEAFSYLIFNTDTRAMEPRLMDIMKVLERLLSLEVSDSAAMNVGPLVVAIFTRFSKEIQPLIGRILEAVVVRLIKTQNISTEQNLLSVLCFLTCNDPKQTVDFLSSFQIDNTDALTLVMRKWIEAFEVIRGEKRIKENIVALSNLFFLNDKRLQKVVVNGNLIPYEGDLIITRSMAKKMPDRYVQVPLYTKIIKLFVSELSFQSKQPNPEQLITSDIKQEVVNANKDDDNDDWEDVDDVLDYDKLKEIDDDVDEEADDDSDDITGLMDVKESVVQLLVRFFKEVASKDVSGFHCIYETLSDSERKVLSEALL

Kap114p (Q597A) = target: T2, Kap114p (Q597A) (S. cerevisiae, UniProt P53067 1-1004, Q597A); assay: as above; details: both partners purified
T2 construct: Kap114p, S. cerevisiae, full length with Q597A; also called GST-Kap114p (Q597); source: E. coli Rosetta, purified (GST resin, MonoQ, Superdex 200)
T2 sequence (looked up): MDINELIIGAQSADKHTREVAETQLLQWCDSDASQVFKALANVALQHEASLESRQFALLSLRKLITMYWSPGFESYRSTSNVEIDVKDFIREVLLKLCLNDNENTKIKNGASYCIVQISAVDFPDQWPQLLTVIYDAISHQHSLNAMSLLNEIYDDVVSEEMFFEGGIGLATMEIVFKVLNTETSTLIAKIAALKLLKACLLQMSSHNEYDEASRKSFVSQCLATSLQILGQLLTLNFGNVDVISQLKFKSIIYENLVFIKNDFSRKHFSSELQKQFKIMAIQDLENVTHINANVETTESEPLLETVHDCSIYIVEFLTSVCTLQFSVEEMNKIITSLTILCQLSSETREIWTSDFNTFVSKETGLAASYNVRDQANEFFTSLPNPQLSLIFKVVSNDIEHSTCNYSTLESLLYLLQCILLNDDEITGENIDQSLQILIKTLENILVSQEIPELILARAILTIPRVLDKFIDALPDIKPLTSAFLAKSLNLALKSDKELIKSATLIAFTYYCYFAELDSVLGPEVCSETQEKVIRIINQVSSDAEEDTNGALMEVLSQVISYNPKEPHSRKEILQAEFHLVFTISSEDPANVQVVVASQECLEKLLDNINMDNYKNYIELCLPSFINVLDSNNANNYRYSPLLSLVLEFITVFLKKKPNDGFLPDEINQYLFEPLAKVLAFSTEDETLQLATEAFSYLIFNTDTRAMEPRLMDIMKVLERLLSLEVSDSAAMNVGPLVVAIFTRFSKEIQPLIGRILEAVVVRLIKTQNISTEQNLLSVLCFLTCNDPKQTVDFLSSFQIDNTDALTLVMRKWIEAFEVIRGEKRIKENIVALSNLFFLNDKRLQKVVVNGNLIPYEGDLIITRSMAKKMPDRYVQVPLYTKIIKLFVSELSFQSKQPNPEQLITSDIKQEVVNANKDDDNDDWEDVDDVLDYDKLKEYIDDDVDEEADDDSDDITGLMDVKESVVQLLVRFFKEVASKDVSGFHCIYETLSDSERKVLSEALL

Kd (Kap114pΔ(Y939)): 37.1 nM
Kd (Kap114p (Q597A)): 7.4 nM
B1: yTBP^C wild type (core domain of yeast TATA-box binding protein, a.a. 61-240) (domain or fragment, S. cerevisiae, UniProt P13393 61-240, looked up)
chain: SGIVPTLQNIVATVTLGCRLDLKTVALHARNAEYNPKRFAAVIMRIREPKTTALIFASGKMVVTGAKSEDDSKLASRKYARIIQKIGFAAKFTDFKIQNIVGSCDVKFPIRLEGLAFSHGTFSSYEPELFPGLIYRMVKPKIVLLIFVSGKIVLTGAKQREEIYQAFEAIYPVLSEFRKM
notes: modified pET28a, 6xHis tag followed by a PreScission site; also called yTBPC WT; His-yTBP (61-240); source: E. coli Rosetta, purified (Ni-NTA, HiTrap SP, Superdex 75); not shown: His6, N-terminal, cleaved
